Source: the supplement of paper PMC10567573

B1: HDAC6 (parent)
chain: QYMNEGELRVLADTYDSVYLHPNS

Variants of: B1
Test: protein stability index of a GFP-peptide fusion (GPS, HEK-293T) (PSI 1-6); higher = more stable
Conditions: c terminus: a fixed tail appended
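Also: lentivirally expressed fusions sorted by FACS into six bins by GFP to DsRed ratio, PSI derived from sequencing read proportions per bin multiplied by bin number.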

For QYMNCGELRVLADTYDSVYLHPNS, which protein stability index is on record?
Its protein stability index is 1.96.

With QYMNDGELRVLADTYDSVYLHPNS as the variant, how does the protein stability index read?
The protein stability index was 1.88.

For QYMNNGELRVLADTYDSVYLHPNS, which protein stability index is on record?
Its protein stability index is 3.15.

Which protein stability index does the source give for QYMNVGELRVLADTYDSVYLHPNS here?
The protein stability index was 1.21.

With QYMNAGELRVLADTYDSVYLHPNS as the variant, how does the protein stability index read?
Its protein stability index is 2.95.

Which protein stability index does the source give for QYMNLGELRVLADTYDSVYLHPNS here?
The protein stability index was 2.12.

Which protein stability index does the source give for QYMNYGELRVLADTYDSVYLHPNS here?
Its protein stability index is 2.03.

With QYMNGGELRVLADTYDSVYLHPNS as the variant, how does the protein stability index read?
Its protein stability index is 2.85.

Which protein stability index does the source give for QYMNMGELRVLADTYDSVYLHPNS here?
Its protein stability index is 1.8.

For QYMNSGELRVLADTYDSVYLHPNS, which protein stability index is on record?
Its protein stability index is 1.92.

Which protein stability index does the source give for QYMNPGELRVLADTYDSVYLHPNS here?
Its protein stability index is 2.57.

Which protein stability index does the source give for QYMNFGELRVLADTYDSVYLHPNS here?
The protein stability index was 1.72.

With QYMNTGELRVLADTYDSVYLHPNS as the variant, how does the protein stability index read?
Its protein stability index is 2.02.

For QYMNHGELRVLADTYDSVYLHPNS, which protein stability index is on record?
The protein stability index was 2.91.

With QYMNKGELRVLADTYDSVYLHPNS as the variant, how does the protein stability index read?
Its protein stability index is 1.9.

With QHMNEGELRVLADTYDSVYLHPNS as the variant, how does the protein stability index read?
The protein stability index was 2.13.

With QMMNEGELRVLADTYDSVYLHPNS as the variant, how does the protein stability index read?
The protein stability index was 1.73.

For QRMNEGELRVLADTYDSVYLHPNS, which protein stability index is on record?
The protein stability index was 3.3.

For QSMNEGELRVLADTYDSVYLHPNS, which protein stability index is on record?
The protein stability index was 2.71.

Which protein stability index does the source give for QGMNEGELRVLADTYDSVYLHPNS here?
The protein stability index was 3.27.

Which protein stability index does the source give for QTMNEGELRVLADTYDSVYLHPNS here?
The protein stability index was 2.9.

For QVMNEGELRVLADTYDSVYLHPNS, which protein stability index is on record?
The protein stability index was 3.27.

For QKMNEGELRVLADTYDSVYLHPNS, which protein stability index is on record?
Its protein stability index is 3.46.

Which protein stability index does the source give for QAMNEGELRVLADTYDSVYLHPNS here?
Its protein stability index is 1.43.

For QWMNEGELRVLADTYDSVYLHPNS, which protein stability index is on record?
Its protein stability index is 2.11.

For QPMNEGELRVLADTYDSVYLHPNS, which protein stability index is on record?
The protein stability index was 4.32.

Which protein stability index does the source give for QLMNEGELRVLADTYDSVYLHPNS here?
Its protein stability index is 2.68.

Which protein stability index does the source give for QIMNEGELRVLADTYDSVYLHPNS here?
The protein stability index was 1.94.

With QNMNEGELRVLADTYDSVYLHPNS as the variant, how does the protein stability index read?
Its protein stability index is 4.07.

Which protein stability index does the source give for QQMNEGELRVLADTYDSVYLHPNS here?
The protein stability index was 2.47.

Which protein stability index does the source give for QDMNEGELRVLADTYDSVYLHPNS here?
Its protein stability index is 3.19.

For QFMNEGELRVLADTYDSVYLHPNS, which protein stability index is on record?
The protein stability index was 2.2.

Which protein stability index does the source give for QEMNEGELRVLADTYDSVYLHPNS here?
The protein stability index was 2.9.

With QYMNEGPLRVLADTYDSVYLHPNS as the variant, how does the protein stability index read?
The protein stability index was 2.64.

Which protein stability index does the source give for QYMNEGHLRVLADTYDSVYLHPNS here?
The protein stability index was 2.26.

With QYMNEGGLRVLADTYDSVYLHPNS as the variant, how does the protein stability index read?
Its protein stability index is 3.04.

With QYMNEGILRVLADTYDSVYLHPNS as the variant, how does the protein stability index read?
Its protein stability index is 1.81.

For QYMNEGQLRVLADTYDSVYLHPNS, which protein stability index is on record?
Its protein stability index is 1.66.

For QYMNEGMLRVLADTYDSVYLHPNS, which protein stability index is on record?
Its protein stability index is 2.81.

For QYMNEGFLRVLADTYDSVYLHPNS, which protein stability index is on record?
Its protein stability index is 2.46.

For QYMNEGKLRVLADTYDSVYLHPNS, which protein stability index is on record?
Its protein stability index is 1.76.

For QYMNEGALRVLADTYDSVYLHPNS, which protein stability index is on record?
The protein stability index was 1.96.

Which protein stability index does the source give for QYMNEGNLRVLADTYDSVYLHPNS here?
Its protein stability index is 1.72.

With QYMNEGSLRVLADTYDSVYLHPNS as the variant, how does the protein stability index read?
The protein stability index was 2.04.

With QYMNEGRLRVLADTYDSVYLHPNS as the variant, how does the protein stability index read?
Its protein stability index is 1.55.

With QYMNEGLLRVLADTYDSVYLHPNS as the variant, how does the protein stability index read?
Its protein stability index is 2.69.

For QYMNEGDLRVLADTYDSVYLHPNS, which protein stability index is on record?
The protein stability index was 2.04.

With QYMNERELRVLADTYDSVYLHPNS as the variant, how does the protein stability index read?
Its protein stability index is 2.03.

With QYMNETELRVLADTYDSVYLHPNS as the variant, how does the protein stability index read?
The protein stability index was 1.85.

Which protein stability index does the source give for QYMNEDELRVLADTYDSVYLHPNS here?
The protein stability index was 1.89.

For QYMNEKELRVLADTYDSVYLHPNS, which protein stability index is on record?
Its protein stability index is 2.06.

For QYMNEMELRVLADTYDSVYLHPNS, which protein stability index is on record?
The protein stability index was 1.6.

With QYMNEWELRVLADTYDSVYLHPNS as the variant, how does the protein stability index read?
Its protein stability index is 1.88.

With QYMNELELRVLADTYDSVYLHPNS as the variant, how does the protein stability index read?
Its protein stability index is 2.51.

With QYMNEEELRVLADTYDSVYLHPNS as the variant, how does the protein stability index read?
The protein stability index was 2.19.

Which protein stability index does the source give for QYMNEHELRVLADTYDSVYLHPNS here?
Its protein stability index is 1.63.

With QYMNEIELRVLADTYDSVYLHPNS as the variant, how does the protein stability index read?
The protein stability index was 1.72.

With QYMNEVELRVLADTYDSVYLHPNS as the variant, how does the protein stability index read?
The protein stability index was 1.97.

For QYMNESELRVLADTYDSVYLHPNS, which protein stability index is on record?
Its protein stability index is 1.98.

For QYMNENELRVLADTYDSVYLHPNS, which protein stability index is on record?
The protein stability index was 2.18.

For QYMNEQELRVLADTYDSVYLHPNS, which protein stability index is on record?
The protein stability index was 1.91.

For QYMNEFELRVLADTYDSVYLHPNS, which protein stability index is on record?
The protein stability index was 2.94.

With QYMNEPELRVLADTYDSVYLHPNS as the variant, how does the protein stability index read?
Its protein stability index is 3.01.

With QYMNEAELRVLADTYDSVYLHPNS as the variant, how does the protein stability index read?
Its protein stability index is 3.02.

With QYMNEYELRVLADTYDSVYLHPNS as the variant, how does the protein stability index read?
The protein stability index was 2.5.

For QYMNECELRVLADTYDSVYLHPNS, which protein stability index is on record?
Its protein stability index is 2.26.

Which protein stability index does the source give for CYMNEGELRVLADTYDSVYLHPNS here?
The protein stability index was 1.52.

Which protein stability index does the source give for DYMNEGELRVLADTYDSVYLHPNS here?
The protein stability index was 3.16.

For RYMNEGELRVLADTYDSVYLHPNS, which protein stability index is on record?
Its protein stability index is 1.43.

For FYMNEGELRVLADTYDSVYLHPNS, which protein stability index is on record?
The protein stability index was 2.53.

For IYMNEGELRVLADTYDSVYLHPNS, which protein stability index is on record?
The protein stability index was 1.83.

With KYMNEGELRVLADTYDSVYLHPNS as the variant, how does the protein stability index read?
Its protein stability index is 1.92.

Which protein stability index does the source give for MYMNEGELRVLADTYDSVYLHPNS here?
Its protein stability index is 1.66.

For EYMNEGELRVLADTYDSVYLHPNS, which protein stability index is on record?
The protein stability index was 1.93.

For GYMNEGELRVLADTYDSVYLHPNS, which protein stability index is on record?
The protein stability index was 1.89.

Which protein stability index does the source give for YYMNEGELRVLADTYDSVYLHPNS here?
Its protein stability index is 1.69.

Which protein stability index does the source give for AYMNEGELRVLADTYDSVYLHPNS here?
Its protein stability index is 1.69.

Which protein stability index does the source give for SYMNEGELRVLADTYDSVYLHPNS here?
The protein stability index was 2.04.

Which protein stability index does the source give for WYMNEGELRVLADTYDSVYLHPNS here?
The protein stability index was 2.21.

With PYMNEGELRVLADTYDSVYLHPNS as the variant, how does the protein stability index read?
Its protein stability index is 2.63.

For TYMNEGELRVLADTYDSVYLHPNS, which protein stability index is on record?
Its protein stability index is 1.84.

For QYTNEGELRVLADTYDSVYLHPNS, which protein stability index is on record?
Its protein stability index is 2.99.

For QYINEGELRVLADTYDSVYLHPNS, which protein stability index is on record?
Its protein stability index is 3.39.

With QYDNEGELRVLADTYDSVYLHPNS as the variant, how does the protein stability index read?
Its protein stability index is 4.19.

Which protein stability index does the source give for QYFNEGELRVLADTYDSVYLHPNS here?
Its protein stability index is 2.15.

Which protein stability index does the source give for QYPNEGELRVLADTYDSVYLHPNS here?
The protein stability index was 4.02.

With QYYNEGELRVLADTYDSVYLHPNS as the variant, how does the protein stability index read?
Its protein stability index is 2.56.

Which protein stability index does the source give for QYVNEGELRVLADTYDSVYLHPNS here?
Its protein stability index is 3.46.

For QYANEGELRVLADTYDSVYLHPNS, which protein stability index is on record?
The protein stability index was 3.17.

Which protein stability index does the source give for QYNNEGELRVLADTYDSVYLHPNS here?
Its protein stability index is 3.41.

Which protein stability index does the source give for QYCNEGELRVLADTYDSVYLHPNS here?
The protein stability index was 3.07.

With QYHNEGELRVLADTYDSVYLHPNS as the variant, how does the protein stability index read?
The protein stability index was 3.64.

For QYSNEGELRVLADTYDSVYLHPNS, which protein stability index is on record?
The protein stability index was 3.23.

For QYLNEGELRVLADTYDSVYLHPNS, which protein stability index is on record?
The protein stability index was 2.38.
